The values that follow come from patent US20250154265A1.

Holding throughout (experiment): cell-based or functional assay
Test [1] concerns the target WT EGFR on HEKn cells (human) (UniProt P00533).
In test [2] the target is human cMET on cells (Hs746T, H596, EBC-1) (human) (UniProt P08581).
Test [3] has as its target EGFR L858R/T790M on H1975 cells (human) (UniProt P00533).
Test [4] deals with EGFR on H2073 cells (human) (UniProt P00533).

Chain of human cMET on cells (Hs746T, H596, EBC-1) (human) (P08581 25-1390 limits assumed): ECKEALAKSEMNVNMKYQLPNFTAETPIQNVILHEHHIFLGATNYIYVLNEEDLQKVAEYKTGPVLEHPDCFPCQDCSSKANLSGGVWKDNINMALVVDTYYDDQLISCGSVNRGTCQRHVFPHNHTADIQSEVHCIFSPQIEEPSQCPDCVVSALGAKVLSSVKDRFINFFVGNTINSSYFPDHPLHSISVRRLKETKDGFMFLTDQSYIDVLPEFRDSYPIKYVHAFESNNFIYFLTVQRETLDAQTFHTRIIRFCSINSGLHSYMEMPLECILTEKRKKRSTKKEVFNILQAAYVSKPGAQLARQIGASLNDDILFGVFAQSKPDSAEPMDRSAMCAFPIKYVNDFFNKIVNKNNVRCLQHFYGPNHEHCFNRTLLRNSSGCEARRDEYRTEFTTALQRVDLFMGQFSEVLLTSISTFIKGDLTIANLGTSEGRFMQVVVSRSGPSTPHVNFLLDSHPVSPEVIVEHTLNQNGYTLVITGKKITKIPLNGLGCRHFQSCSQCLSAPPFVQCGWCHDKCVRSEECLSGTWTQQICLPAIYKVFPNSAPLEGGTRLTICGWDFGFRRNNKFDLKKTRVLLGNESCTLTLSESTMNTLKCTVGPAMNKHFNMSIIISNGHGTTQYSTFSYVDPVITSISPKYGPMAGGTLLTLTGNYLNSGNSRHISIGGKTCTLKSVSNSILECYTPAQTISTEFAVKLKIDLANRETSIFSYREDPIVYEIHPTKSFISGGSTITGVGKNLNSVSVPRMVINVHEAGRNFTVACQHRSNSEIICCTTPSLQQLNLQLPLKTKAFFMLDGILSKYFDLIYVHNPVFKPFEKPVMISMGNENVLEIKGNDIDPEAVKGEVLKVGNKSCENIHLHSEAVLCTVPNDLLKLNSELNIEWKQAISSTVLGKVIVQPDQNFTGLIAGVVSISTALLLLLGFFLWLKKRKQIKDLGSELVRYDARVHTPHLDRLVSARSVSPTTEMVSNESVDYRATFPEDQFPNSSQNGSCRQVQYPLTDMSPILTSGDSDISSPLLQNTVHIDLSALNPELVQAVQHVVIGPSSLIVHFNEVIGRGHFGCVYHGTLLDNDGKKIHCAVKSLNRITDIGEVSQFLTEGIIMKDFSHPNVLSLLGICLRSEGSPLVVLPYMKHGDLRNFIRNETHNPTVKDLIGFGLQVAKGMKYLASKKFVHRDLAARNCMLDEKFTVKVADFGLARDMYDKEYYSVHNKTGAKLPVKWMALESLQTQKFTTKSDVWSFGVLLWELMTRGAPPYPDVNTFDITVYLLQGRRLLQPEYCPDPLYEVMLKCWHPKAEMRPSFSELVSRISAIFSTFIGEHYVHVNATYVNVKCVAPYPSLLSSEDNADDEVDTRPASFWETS

In test [1], JNJ-372 (bispecific antibody) came in with an IC50, anti-proliferation on HEKn cells of 5.7 nM and an Imax(%), anti-proliferation on HEKn cells of 33.5%. Further, in test [2], the Imax (%), anti-proliferation on EBC-1 came to 0% and the Imax (%), anti-proliferation on Hs746t was 0%. In addition, in test [3], the IC50, anti-proliferation on H1975 is 0.23 nM and the Imax (%), anti-proliferation on H1975 came to 58.4%. Besides, in test [4], the IC50, anti-proliferation on H2073 is 3.46 nM and the Imax (%), anti-proliferation on H2073 was determined as 83%.

In the case of LY3164530 (bispecific antibody), in test [1], the IC50, anti-proliferation on HEKn cells stood at 0.24 nM and the Imax(%), anti-proliferation on HEKn cells was 46.2%.
